{"source": "paper PMC3136132", "target": "FMRP (UniProt Q06787)", "test": "biotin-RNA affinity capture", "conditions": "50 mM Tris-HCl pH 7.4, 2 mM MgCl2, 150 mM KCl, 1 mM EDTA, 1 mM DTT (Schaeffer buffer without tRNA, supplemented with 125 mM NaCl); SoftLink avidin resin …; scale: fold more RNA needed than eEF-1A mRNA for comparable binding", "data": [{"substance": "BC1 RNA, annealed", "values": [{"measurement": "fold more RNA needed than eEF-1A mRNA", "value": 100}]}]}
